Target: HA-tagged p26 (long-distance movement protein p26 of Pea enation mosaic virus 2) (Pea enation mosaic virus 2)
Experiment: SDS-PAGE and Western blot; lysates of agroinfiltrated N. benthamiana leaves (10x PBS, 2% beta-mercaptoethanol), 10% SDS-PAGE, blot with anti-HA antibody; co-infiltrated with p14, GFP-3'UTR(PEMV) and U1D

HA-tagged p26 (long-distance movement protein p26 of Pea enation mosaic virus 2) (natural protein)
stoichiometry N: 2

Reference: article PMC7064760
